# Reference: paper PMC10706732
# Molecular target: Human ceruloplasmin (human) (UniProt P00450)
# Experiment: SPR; Biacore X100; human CP immobilised on CM5 chip by EDC/NHS (3.3 ng/mm2); LF or LF/8OA as analyte in HBS-P+ (150 mM NaCl, 10 mM Hepes pH 7.5, 0.05% polyoxyethylene sorbitan), 30 uL/min; 1:1 Langmuir model
# UniProt P00450, sequence (P00450 20-1065): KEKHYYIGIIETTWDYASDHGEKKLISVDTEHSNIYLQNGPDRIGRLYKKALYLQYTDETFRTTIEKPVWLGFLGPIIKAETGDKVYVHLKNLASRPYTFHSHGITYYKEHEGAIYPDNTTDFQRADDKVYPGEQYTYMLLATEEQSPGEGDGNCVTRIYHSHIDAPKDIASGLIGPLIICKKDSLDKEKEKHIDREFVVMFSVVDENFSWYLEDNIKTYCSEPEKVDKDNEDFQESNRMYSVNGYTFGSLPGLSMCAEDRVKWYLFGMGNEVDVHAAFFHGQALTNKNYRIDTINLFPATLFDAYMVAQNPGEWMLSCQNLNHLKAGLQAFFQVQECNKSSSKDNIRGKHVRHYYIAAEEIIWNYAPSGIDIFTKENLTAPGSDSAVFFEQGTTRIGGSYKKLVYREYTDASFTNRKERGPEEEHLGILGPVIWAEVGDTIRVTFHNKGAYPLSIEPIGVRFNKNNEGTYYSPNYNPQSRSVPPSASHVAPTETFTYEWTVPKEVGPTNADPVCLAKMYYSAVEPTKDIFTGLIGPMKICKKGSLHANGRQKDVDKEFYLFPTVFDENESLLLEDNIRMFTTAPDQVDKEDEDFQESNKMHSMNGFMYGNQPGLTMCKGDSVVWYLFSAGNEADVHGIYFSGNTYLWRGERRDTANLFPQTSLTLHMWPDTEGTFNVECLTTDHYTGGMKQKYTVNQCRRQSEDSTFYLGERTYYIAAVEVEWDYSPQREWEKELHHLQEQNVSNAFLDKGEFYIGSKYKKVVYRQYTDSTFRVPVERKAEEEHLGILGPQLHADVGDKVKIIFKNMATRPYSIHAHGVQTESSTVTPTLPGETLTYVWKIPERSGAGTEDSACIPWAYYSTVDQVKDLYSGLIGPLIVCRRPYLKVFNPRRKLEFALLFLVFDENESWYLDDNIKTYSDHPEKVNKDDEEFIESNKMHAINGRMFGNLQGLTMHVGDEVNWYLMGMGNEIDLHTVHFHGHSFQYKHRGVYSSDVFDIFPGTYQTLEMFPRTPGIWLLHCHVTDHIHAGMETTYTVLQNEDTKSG
row,Substance,Kd [nM]
1,Complex formed by one human lactoferrin molecule and eight molecules of oleic acid,407
2,Recombinant human lactoferrin (natural protein),367
